Results published in paper PMC6582323 (Nucleic Acids Research, 2019).

Experiments:
[1] = target: T1, Cyanothece PCC7424 McdA(D38A) (Cyanothece sp. PCC 7424, UniProt B7KMS4 1-258, D38A); experiment: fluorescence polarisation
T1 sequence (looked up): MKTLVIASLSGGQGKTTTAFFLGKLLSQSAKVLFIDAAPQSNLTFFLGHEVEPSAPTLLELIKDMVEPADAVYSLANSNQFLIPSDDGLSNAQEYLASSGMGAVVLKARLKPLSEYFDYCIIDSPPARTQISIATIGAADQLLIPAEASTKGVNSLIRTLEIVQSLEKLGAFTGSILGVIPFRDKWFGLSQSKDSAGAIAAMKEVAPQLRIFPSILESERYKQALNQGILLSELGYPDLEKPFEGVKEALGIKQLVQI

crystal structure = target: the molecule itself; experiment: crystal structure

B1: Cyanothece PCC7424 McdB (wild type) (natural protein, Cyanothece sp. PCC 7424, UniProt B7KMS5 1-156, looked up)
chain: MSNNALDRLINKQKPKVPPRNDVVSESVSNDIKTQGQQELNTSLPPSDTKATPEEMPTSHESETSLSQDQKPKLSPDTFETVRNTIRIESEVDESLRQLCHEERITKETWLEAAYLYLCEKPEELAQVIQLAQERLSQRKAIADYKRAKTMQERFL
Kd [1]: 1100 nM
stoichiometry N (crystal structure): 2
